Where two headings read alike, the source gives them in different places.
B1: mutant Repeat B RNA (ssRNA)
RNA: GCAACAGCAACUGCAACAGCAACAGCAACUGCAACUGCAACAGCAACUGCAACA
B2: WT Repeat B RNA (ssRNA)
RNA: GCCCCAGCCCCUGCCCCAGCCCCAGCCCCUGCCCCUGCCCCAGCCCCUGCCCCA

How the values were obtained:
6xHis-HNRNPK [1] = target: T1, 6xHis-HNRNPK (mouse, UniProt P61979 1-463); assay: EMSA
6xHis-HNRNPK [2] = target: T1, 6xHis-HNRNPK; assay: EMSA; remark: listed apart in the source

Row | Binder | binding result (6xHis-HNRNPK [1]) | binding result (6xHis-HNRNPK [2])
1 | B1 | no binding | 
2 | B2 |  | binds

— PMC6469964
